In patent publication US8058396B2, “Cystatin C as an antagonist of TGF-β and methods related thereto” (National Jewish Health, priority 2003, dated 2011):
Where a SMILES comes first, the peptide text is derived from it.

Tests used:
[1] = system: HT1080 fibrosarcoma cells; assay: HT1080 cell invasion through Matrigel matrices; type: cell-based, human; conditions: treatment of HT1080 cells with inhibitor
Experimental: (§1) The effect CystC and D14CystC on the invasion of HT1080 and 3T3-L1 cells was determined as described previously (42). Briefly, upper chambers were coated with 100 μl of diluted Matrigel (1:50 in serum-free media), which was allowed to evaporate to dryness overnight at room temperature. The following morning the Matrigel mixtures were rehydrated and subsequently cultured with control-, CystC-, or D14CystC-expressing HT1080 or 3T3-L1 cells at a density of 100,000 cells/chamber. Cellular invasion was stimulated by addition of 2% serum to the lower chambers. Forty-eight hr later, the cells were washed twice in ice-cold PBS and immediately fixed for 15 min with 95% ethanol. Cells remaining in the upper chambers were removed with a cotton swab, whereas those remaining in the lower chamber were stained with crystal violet. Quantifying invading cells was determined through two independent measures, which yielded identical results: (i) manual counting under a light microscope, and (ii) crystal violet dye extraction by incubation of the membranes in 10% acetic acid, followed by spectrophotometry at 590 nm.
Cathepsin B is a lysosomal cysteine proteinase that functions in intracellular protein catabolism, as well as in bone resorption, hormone activation, and antigen processing (5). During tumorigenesis, cancer cells express a cathepsin B splice variant whose protein product is secreted into the extracellular milieu (5) and localized to the leading edge of invasive tumors (19), thereby promoting cancer cell invasion and metastasis. However, recent evidence has questioned the role of intracellular versus extracellular cathepsin B in promoting cancer cell invasion (20). To distinguish between these two possibilities, human HT1080 fibrosarcoma cells that stably express the murine ecotropic receptor (21) were infected with control (i.e., GFP), CystC, or Δ14CystC retrovirus. Afterward, cells that expressed GFP were isolated by flow cytometry to establish stable polyclonal populations of control-, CystC-, and Δ14CystC-expressing HT1080 cells (data not shown). The inventor chose to study HT1080 cells because they are highly invasive, and because they express large quantities of secreted cathepsin B and comparably little CystC (22). Thus, if extracellular cathepsin B mediates HT1080 cell invasion, it was hypothesized that overexpression of secreted CystC would attenuate their invasion through synthetic basement membranes.
Briefly, GFP-, CystC-, or Δ14CystC-expressing HT0180 cells were allowed to invade through Matrigel-coated membranes for 48 hr. Data shown in FIG. 1A are the mean (±SE) of three (Δ14CystC) and nine (GFP and CystC) independent experiments presented as the percent invasion relative to GFP-expressing HT1080 cells (***, p<0.05; Student's T-Test).

[2] = system: NMuMG mammary epithelial cells; assay: TGF-β-mediated downregulation of E-cadherin in NMuMG cells; type: cell-based, murine; conditions: recombinant protein treatment 10 μg/ml; TGF-β1 5 ng/ml, 36 hours; NMuMG cells
Experimental: (§2) The ability of TGF-β to alter actin cytoskeletal architecture and E-cadherin expression was monitored essentially as described (Piek et al., 1999). Briefly, control-, CystC-, or Δ14CystC-expressing NMuMG cells were allowed to adhere overnight to glass coverslips in 24-well plates (50,000 cells/well). The cells were stimulated the following day with TGF-β1 (5 ng/ml) for 0-36 hours at 37° C. In some experiments, control NMuMG cells were stimulated with TGF-β1 in the absence or presence of 10 μg/ml of recombinant GST, GST-CystC, or GST-Δ14CystC. Upon completion of agonist stimulation, the cells were washed in ice-cold PBS and immediately fixed in 3.7% formaldehyde. After extensive washing in PBS, the cells were blocked in PBS supplemented with 1.5% FBS, followed by incubation with rhodamine-phalloidin (0.25 μM). […]
The ability of TGF-β to alter E-cadherin expression also was monitored by immunoprecipitating E-cadherin from Buffer H/1% Triton X-100-solubilized (Schiemann et al., 2003) NMuMG whole cell extracts, followed by immunoblotting with anti-E-cadherin antibodies (1:1000 dilution).
(§3) To test this hypothesis, the inventor first examined whether CystC and a CystC mutant impaired in its ability to inhibit cathepsin protease activity (i.e., Δ14CystC) could antagonize TGF-β stimulation of EMT in MECs. […] TGF-β stimulation of EMT is studied routinely in murine NMuMG MECs, which readily undergo EMT when treated with TGF-β (Piek et al., 1999; Miettinen et al., 1994; Gotzmann et al., 2004). […] E-cadherin expression was monitored by indirect immunofluorescence with anti-E-cadherin antibodies.
In another experiment, NMuMG cells were infected with ecotropic retrovirus encoding either GFP (i.e., control), CystC, or Δ14CystC, and subsequently were isolated by FACS-sorting for GFP expression to yield stable polyclonal populations of control, CystC, and Δ14CystC-expressing cells. The expression and secretion of recombinant CystC proteins by infected NMuMG and NRK cells was monitored by immunoblotting conditioned-media with anti-CystC antibodies. […]

TGF-β signaling = assay: p3TP-luciferase reporter gene assay in 3T3-L1 cells; type: cell-based, murine; conditions: recombinant protein 10 mg/ml; TGF-β1 5 ng/ml; 3T3-L1 cells; p<0.05
Experimental: Analysis of luciferase activity driven by the synthetic p3TP reporter ((26); generously provided by Dr. Joan Massague, Sloan Kettering) was performed as described previously (42). Briefly, control, CystC-, or Δ14CystC-expressing 3T3-L1 or HT1080 cells were cultured onto 24-well plates at a density of 45,000 cells/well and allowed to adhere overnight. The cells were transiently transfected the following morning by overnight exposure to LT1 liposomes (Mirus) containing 300 ng/well p3TP-luciferase and 100 ng/well of pCMV-β-gal. Afterward, the cells were washed twice with PBS and stimulated overnight in serum-free media with increasing concentrations of TGF-β1 as indicated. The following morning, luciferase and β-gal activities contained in detergent-solubilized cell extracts were determined.
In some experiments, the effects of recombinant CystC and D14CystC on p3TP-luciferase activity 3T3-L1 cells was determined. […] All subsequent procedures were performed as described above.
The present inventor's findings that TGF-β signaling was inhibited by CystC (FIGS. 1 and 2) independent of its actions on cathepsin B lead them to hypothesize CystC as a general antagonist of TGF-β signaling. To test this hypothesis, changes in p3TP-driven luciferase activity were monitored in control, CystC-, Δ14CystC-expressing cells before and after their stimulation with TGF-β. Briefly, GFP-, CystC-, or Δ14CystC-expressing 3T3-L1 cells were transiently transfected with p3TP-luciferase and pCMV-β-gal, and subsequently stimulated with increasing concentrations of TGF-β1 (0-5 ng/ml) as indicated in FIG. 3A. Afterward, luciferase and β-gal activities contained in detergent-solubilized cell extracts were measured. […] Data are the mean (±SE) luciferase activities of four independent experiments normalized to untreated GFP-expressing cells.
The transfectants were then stimulated with TGF-β1 (5 ng/ml) in the absence or presence of recombinant (10 mg/ml) GST, GST-CystC, or GST-D14CystC as indicated in FIG. 3B. […]

3T3-L1 fibroblasts = assay: 3T3-L1 cell invasion through Matrigel matrices; type: cell-based, murine; conditions: recombinant protein 10 mg/ml; TGF-β1 5 ng/ml; 48 hr
Experimental: as §1
In some experiments, the effects of recombinant CystC and D14CystC on 3T3-L1 cell invasion was examined. To do so, 3T3-L1 cells (100,000 cells/chamber) were allowed to invade through Matrigel […], together with or without 5 ng/ml of TGF-β1. All subsequent procedures were performed as described above.
GFP-, CystC-, or Δ14CystC-expressing 3T3-L1 cells were allowed to invade through Matrigel-coated filters in the absence or presence of TGF-β1 (5 ng/ml) for 48 hr, and the results are shown in FIG. 2A. […] Data are the mean (±SE) of four independent experiments presented as the percent invasion relative to GFP-expressing 3T3-L1 cells.
Moreover, the inhibitory effects of CystC on 3T3-L1 cell invasion could be recapitulated by addition of recombinant CystC fusion proteins. Control or TGF-β1-stimulated (5 ng/ml) 3T3-L1 cells were allowed to invade through Matrigel-coated filters for 48 hr in the absence or presence of recombinant (10 mg/ml) GST, GST-CystC, or GST-D14CystC as indicated in FIG. 2B. […] Data are the mean (±SE) of three independent experiments presented as the percent invasion relative to untreated 3T3-L1 cells. […] Collectively, these findings indicate that 3T3-L1 cell invasion proceeds through cathepsin B-dependent and TGF-β-dependent pathways.

[3] = system: NMuMG mammary epithelial cells; assay: TGF-β-stimulated actin cytoskeletal reorganization (EMT) in NMuMG cells, rhodamine-phalloidin immunofluorescence; type: cell-based, murine; conditions: recombinant protein treatment 10 μg/ml; TGF-β1 5 ng/ml; NMuMG cells
Experimental: as §2, §3
In another experiment, NMuMG cells were infected with ecotropic retrovirus encoding either GFP (i.e., control), CystC, or Δ14CystC, and subsequently were isolated by FACS-sorting for GFP expression to yield stable polyclonal populations of control, CystC, and Δ14CystC-expressing cells. The expression and secretion of recombinant CystC proteins by infected NMuMG and NRK cells was monitored by immunoblotting conditioned-media with anti-CystC antibodies. […] Next, the control, CystC-, and Δ14CystC-expressing NMuMG cells were incubated in the absence or presence of TGF-β1 (5 ng/ml) for 36 hours, whereupon E-cadherin expression was monitored by immunoblotting with anti-E-Cadherin antibodies. […]

[4] = system: TGF-β receptors (TβR-I, TβR-II, TβR-III); assay: Iodinated TGF-β1 radioligand binding and cross-linking assay on Mv1Lu cells; set-up: species or system mink; conditions: [125I]TGF-β1 200 pM, recombinant protein 0-10 μg/ml, 3 hr at 4° C.
Experimental: Mink lung Mv1Lu epithelial cells were plated onto 6-well plates and grown until 90% confluency. The radioligand binding and cross-linking of iodinated TGF-β1 (200 pM) to Mv1Lu cells in the absence or presence of increasing concentration of recombinant GST-Jun(1-79) or -CystC was performed as described previously (44). Afterward, cytokine:receptor complexes contained in detergent-solubilized whole cell extracts were isolated by immunoprecipitation with anti-TβR-II antibodies as described previously (44). TGF-β1 bound to cell surface TβR-I, TβR-II, and TβR-III was visualized by exposure of the dried gels to a phosphor screen, which were developed 1-3 d later on a Molecular Dynamic Typhoon Scanner. Total bound TGF-β1 was defined as the sum of signal intensities for TGF-β1 cross-linked to TβR-I, TβR-II, and TβR-III in each condition.
Mink lung Mv1Lu epithelial cells were incubated for 3 hr at 4° C. with [125I]TGF-β1 (200 pM) in the absence or presence of increasing concentrations (0-10 μg/ml; 0, 0.5, 1, 5, 10) of recombinant Jun(1-79) or CystC. Cytokine:receptor complexes were cross-linked by addition of disuccinimidyl suberate, and subsequently isolated from detergent-solubilized whole cell extracts by immunoprecipitation with anti-TβR-II antibodies. […]

Molecule: CCCNC(=O)[C@H]1O[C@@H]1C(=O)N[C@H](C(=O)N1CCC[C@H]1C(=O)OC)[C@@H](C)CC [CA-074ME, reference compound]
- HT1080 cell invasiveness ([1]; n=3): 101.0±5.6 % of control

Molecule: CC(=O)N[C@@H](CC(C)C)C(=O)N[C@H](C(=O)N[C@H](C=O)CCCCN)C(C)C [cathepsin B inhibitor II, reference compound] (Ac-Leu-Val-Lys-aldehyde)
- reduction of HT1080 cell invasion through Matrigel matrices ([1]; n=3, p<0.05): 47.1±8.5%

B1: recombinant Δ14CystC: GST-CystC fusion protein with residues 80-93 deleted by site-directed mutagenesis, purified from E. coli (protein)
chain: MAGPLRAPLLLLAILAVALAVSPAAGSSPGKPPRLVGGPMDASVEEEGVRRALDFAVGEYNKASNDMYHSRALQVVRARLGRTTCTKTQPNLDNCPFHDQPHLKRKAFCSFQIYAVPWQGTMTLSKSTCQDA
modifications: left off: small tags and cut ends
notes: GST-CystC fusion protein with residues 80-93 deleted by site-directed mutagenesis, purified from E. coli
- TGF-β-mediated downregulation of E-cadherin [2]: antagonized
- luciferase activity stimulated by TGF-β (p3TP) (TGF-β signaling): significantly inhibited
- 3T3-L1 cell invasion stimulated by serum:TGF-β (3T3-L1 fibroblasts): selectively blocked
- actin cytoskeletal reorganization stimulated by TGF-β [3]: prevented

B2: recombinant Jun(1-79): recombinant GST-Jun(1-79) fusion protein, control in the TGF-β1 binding assay (protein)
chain: MTAKMETTFYDDALNASFLPSESGPYGYSNPKILKQSMTLNLADPVGSLKPHLRAKNSDLLTSPDVGLLKLASPELERL
modifications: left off: a dimerising Fc or GST
- binding of iodinated TGF-β1 to its cell surface receptors [4]: no effect
